Results: US20190218308A1 (INNATE PHARMA, published 2019)

Key:
CD39 mutant 19 [1] = target: T1, CD39 mutant 19 (human, UniProt P49961 1-510); assay: flow cytometry, Hek-293T cells transfected with CD39 mutant 19 (panel M19), Comp-Alexa Fluor 647-A
T1 construct: Expressed on Hek-293T cells; also called M19
T1 chain: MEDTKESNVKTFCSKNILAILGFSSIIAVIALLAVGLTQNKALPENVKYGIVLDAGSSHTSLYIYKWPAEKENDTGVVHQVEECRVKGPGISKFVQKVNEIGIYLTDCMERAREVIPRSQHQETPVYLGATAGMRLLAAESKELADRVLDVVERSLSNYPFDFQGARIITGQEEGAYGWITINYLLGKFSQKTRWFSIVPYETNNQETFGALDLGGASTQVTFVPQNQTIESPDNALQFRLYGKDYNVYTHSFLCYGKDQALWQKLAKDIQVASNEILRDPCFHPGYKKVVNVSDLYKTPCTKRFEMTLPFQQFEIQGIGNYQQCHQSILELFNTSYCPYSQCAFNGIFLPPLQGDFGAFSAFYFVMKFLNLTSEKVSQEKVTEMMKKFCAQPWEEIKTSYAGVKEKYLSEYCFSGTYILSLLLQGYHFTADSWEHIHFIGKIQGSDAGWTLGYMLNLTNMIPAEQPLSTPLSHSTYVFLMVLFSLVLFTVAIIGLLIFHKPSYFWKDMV

CD39 mutant 5 [2] = target: T2, CD39 mutant 5 (human, UniProt P49961 1-510); assay: flow cytometry, Hek-293T cells transfected with CD39 mutant 5 (panel M5), Comp-Alexa Fluor 647-A
T2 construct: Expressed on Hek-293T cells; also called M5
T2 chain: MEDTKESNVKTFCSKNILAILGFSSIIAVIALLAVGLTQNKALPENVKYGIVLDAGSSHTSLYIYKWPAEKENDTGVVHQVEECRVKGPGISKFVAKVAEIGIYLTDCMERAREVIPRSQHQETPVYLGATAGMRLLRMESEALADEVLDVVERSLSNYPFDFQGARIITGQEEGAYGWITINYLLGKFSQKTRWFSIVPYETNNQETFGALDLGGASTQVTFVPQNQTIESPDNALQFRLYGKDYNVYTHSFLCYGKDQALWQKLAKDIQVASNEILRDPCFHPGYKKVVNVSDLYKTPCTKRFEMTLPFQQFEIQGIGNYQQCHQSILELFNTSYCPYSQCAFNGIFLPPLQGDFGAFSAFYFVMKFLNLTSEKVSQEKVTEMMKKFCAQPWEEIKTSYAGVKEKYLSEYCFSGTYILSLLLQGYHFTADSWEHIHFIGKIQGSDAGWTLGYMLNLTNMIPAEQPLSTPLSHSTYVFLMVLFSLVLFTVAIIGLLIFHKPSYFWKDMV
Experimental: (§1) Mutants were transfected in Hek-293T cells, as shown in the table 1, using numbering of SEQ ID NO: 2. […] Mutant 19 includes substitutions at residues R138, M139 and E142.
(§2) Mutants were transfected in Hek-293T cells, as shown in the table 1, using numbering of SEQ ID NO: 2. Dose-ranges of test antibodies (10-2.5-0.625-0.1563-0.0391-0.0098-0.0024-0.0006 μg/ml) are tested on the 20 generated mutants by flow cytometry.

CD39 mutant 15 [3] = target: T3, CD39 mutant 15 (human, UniProt P49961 1-510); assay: flow cytometry, Hek-293T cells transfected with CD39 mutant 15 (panel M15), table under the panel; unstained (US) 8,98; antibody concentration not shown
T3 construct: Expressed on Hek-293T cells; also called M15
T3 chain: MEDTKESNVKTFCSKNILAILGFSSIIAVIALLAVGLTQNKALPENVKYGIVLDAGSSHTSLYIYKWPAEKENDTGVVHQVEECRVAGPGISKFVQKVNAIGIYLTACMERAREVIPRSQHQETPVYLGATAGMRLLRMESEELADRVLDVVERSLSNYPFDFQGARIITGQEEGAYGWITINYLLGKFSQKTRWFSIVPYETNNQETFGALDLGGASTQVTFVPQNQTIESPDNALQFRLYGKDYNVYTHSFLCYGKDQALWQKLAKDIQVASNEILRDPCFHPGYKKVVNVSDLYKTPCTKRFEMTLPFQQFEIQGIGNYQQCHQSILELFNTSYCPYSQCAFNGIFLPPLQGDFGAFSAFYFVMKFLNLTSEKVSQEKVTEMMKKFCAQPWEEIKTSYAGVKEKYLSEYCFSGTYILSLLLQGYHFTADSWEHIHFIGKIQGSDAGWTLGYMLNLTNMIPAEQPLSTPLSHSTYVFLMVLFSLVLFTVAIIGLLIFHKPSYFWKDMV
Experimental: as §1, §2

CD39 mutant 15 [4] = target: T3, CD39 mutant 15; assay: flow cytometry, Hek-293T cells transfected with CD39 mutant 15 (panel M15); antibody concentration not shown
CD39 mutant 5 [5] = target: T2, CD39 mutant 5; assay: flow cytometry, Hek-293T cells transfected with CD39 mutant 5 (panel M5); antibody concentration not shown
CD39 mutant 19 [6] = target: T1, CD39 mutant 19; assay: flow cytometry, Hek-293T cells transfected with CD39 mutant 19 (panel M19); antibody concentration not shown
Experimental: as §1, §2

CD39 mutant 11 = target: T4, CD39 mutant 11 (human, UniProt P49961 1-510); assay: flow cytometry, Hek-293T cells expressing mutant 11
T4 construct: Expressed on Hek-293T cells
T4 sequence: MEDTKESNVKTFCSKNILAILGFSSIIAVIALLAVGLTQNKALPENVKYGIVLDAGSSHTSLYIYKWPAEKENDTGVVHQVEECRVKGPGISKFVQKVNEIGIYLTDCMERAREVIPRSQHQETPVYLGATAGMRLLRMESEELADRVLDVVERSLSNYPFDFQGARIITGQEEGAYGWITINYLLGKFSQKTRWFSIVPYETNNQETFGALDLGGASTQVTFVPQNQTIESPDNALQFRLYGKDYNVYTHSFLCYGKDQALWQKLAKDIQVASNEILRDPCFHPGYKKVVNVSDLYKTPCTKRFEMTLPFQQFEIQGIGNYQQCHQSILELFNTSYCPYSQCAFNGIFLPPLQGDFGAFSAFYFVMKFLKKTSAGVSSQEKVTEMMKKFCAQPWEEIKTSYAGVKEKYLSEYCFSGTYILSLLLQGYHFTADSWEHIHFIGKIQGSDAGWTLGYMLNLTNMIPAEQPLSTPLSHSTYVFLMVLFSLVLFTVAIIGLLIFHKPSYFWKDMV

CD39 mutant 15 [7] = target: T3, CD39 mutant 15; assay: flow cytometry, Hek-293T cells expressing mutant 15
CD39 mutant 19 [8] = target: T1, CD39 mutant 19; assay: flow cytometry, Hek-293T cells expressing mutant 19
CD39 mutant 5 [9] = target: T2, CD39 mutant 5; assay: flow cytometry, Hek-293T cells expressing mutant 5

Binder | binding result (CD39 mutant 19 [1]) | binding result (CD39 mutant 5 [2]) | Median : Comp-Alexa Fluor 647-A (CD39 mutant 15 [3]) | binding result (CD39 mutant 15 [4]) | binding result (CD39 mutant 5 [5]) | binding result (CD39 mutant 19 [6]) | binding result (CD39 mutant 11) | binding result (CD39 mutant 15 [7]) | binding result (CD39 mutant 19 [8]) | binding result (CD39 mutant 5 [9])
antibody I-396 (antibody, V domains shown, Hybridoma antibody purified with protein A) VH: EVQLQQSGAELVKPGASVKLSCIVSGFNIKDTYINWVKQRPEQGLEWIGRIDPANGNTKYDPKFQGKATMTSDTSSNTAYLHLSSLTSDDSAVYYCARWGYDDEEADYFDSWGQGTTLTVSS VL: not shown | binds | binds | 35.9 | no binding | – | – | – | – | – | –
antibody I-395 (antibody, V domains shown, Hybridoma antibody purified with protein A) VH: EVQLQQSGPELVKPGASVRMSCKASGYTFTDYNMHWVKKNHGKGLEWIGYINPNNGGTTYNQKFKGKATLTVNTSSKTAYMELRSLTSEDSAVYYCTRGGTRFASWGQGTLVTVSA VL: not shown | – | – | 5750 | – | no binding | no binding | – | – | – | –
antibody I-399 (antibody, V domains shown, Hybridoma antibody purified with protein A) VH: PVQLQQPGAEVVMPGASVKLSCKASGYTFTSFWMNWMRQRPGQGLEWIGEIDPSDFYTNSNQRFKGKATLTVDKSSSTAYMQLSSLTSEDSAVYFCARGDFGWYFDVWGTGTSVTVSS VL: EIVLTQSPTTMTSSPGEKITFTCSASSSINSNYLHWYQQKPGFSPKLLIYRTSNLASGVPTRFSGSGSGTSYSLTIGTMEAEDVATYYCQQGSSLPRTFGGGTKLEIK | – | – | – | – | – | – | no binding (tested: dose range up to 10 µg/ml) | binds | binds | binds
